Reference: the DeepSol protein solubility set

Experiment: soluble on expression in E. coli; label from the status in PepcDB or PDB records

Soluble on expression in E. coli, not soluble:
MGSDKIHHHHHHMFVEACGRLVLIRKIYGLVKVFMVKKTIRYMRISLMLTNDAIFTTRLQKGGALLDDMRQLVCQWTEAVAKPESQAGEILHKATRSRVADTYRRAFLPRFLKGSPQDAWKLARALEEAHPSIEIIRPFYYWITARAEPILYAYVTEELVEKAKTSDRAVRTEETASWINNTLRSCGRVWSPTVQLKVARGILAALRDFAILEGAVNKRLVHGHLPIETFCLIAFLLNLMGIGARELVEHSDWKLFLLAGPEVERLFFEAHQHGWLHYQAAGRVHRIEFPTNDFKDYIRVIFGTES
MGSDKIHHHHHHMGAKKNFVLDTNVILHDYKCIENFQENDIYLPIVVLEELDKFKKGSEQINYNAREFVRELDLLTSNDLFLKGASLGPGKGTLYIVTGDKYQEKIAHSFPDKTPDHRILSCALTIAEKNPKIKTTLVSKDVNLRMKARSLGIPVEDYITDKVVNVDIFERAQETYENIDPDLIDKIYSSPEGVDADSLDIKSKLDPNECFILKSVRNSVLARYNPFTDKIKKVDKGTNFGIQPRNAEQSFAFEVLNDPNIKLVGLTGKAGTGKTLLALASALKQAGTYKQILLARPIVALANKDLGFLPGDEKQKVAPYMQPLFDNLNVIKTQFAPGNPDVRKIDDMQKNNQLVIEALAFIRGRSLSETYCIIDEAQNLTPHEIKTIITRAGEGTKMVFTGDIQQIDSPYLDAQSNGLAYMIDKMKGQDLFAHINLIKGERSELSELASDLL
MGSDKIHHHHHHMGDSMSLDWDKLRIFHAAAEAGSFTHAADKLHLSQSAISRQVSSLEQDVGIKLFHRHARGLILTEQGEMLYRTAHDVLMKLESVKAQLSETTDKPSGKLRITTTVGLGQGWLTDKIQEFMSLYPEIQVQLILDNEELDVNMRHADCAIRLRQPQQSDLIQRKLFTVHMHVYAAPSYINKYGEPQSLDDLDNHRIITFGEPAPNYLLDVNWLEIAGRDSDNPRISHLQINSQTSIKRACLLGIGIAMLPDYIVGRDPGLIQLPISADIPSFDTYFCYPDELKNAAKLKVFRDYIVAKARNWNF
MGSDKIHHHHHHMGIPKRKLGERGPEVSAIGLGCMRMSFGQKKLPDRKEMIKLIRTAVELGINFFDTAEVYGPYTNEELVGEALEPFKGEVVIATKFGFELYEDGRPGWKGLNSNPEHIKKAVEGSLRRLRVEAIDILYQHRVDPNVPIEEVAGAVKELIEEGKVKHFGLCEASAETIRRAHKVCPVDVVQYEYSMWWRKPEEELLPTCEELGIGFVAYSPLGKGFLTGAIGENSKFDEEDSRSRIPRFQKENLRENLALVELRKTIAERKGATPSQIALAWLLAQKPWIVPIPGTTKLSHLLENIGGAFVELTPEELQEINDALSRIEIKGSRYPEDMEKMTYL
MGSDKIHHHHHHMGIRILNDLMLDKSALLFGVSKYLEKGIITGNILIHKSLLAELEKESNDGLVSAEIALDEVKKLKDITERILVNFEIVGENSKKGEANELSREYCLEKGCIMVTADETQKKICDVMGIQYSFLQPLEQSLSFESFFDDETMSLHIKEDTVPRAKKGKPGNWKFVNLSNKPMLSVDVKRIANEIINGVRFIKGSFIEIERKGSLIIQLGNYRVVITRPPLSDGWEITITRPVVRKRLEDYGLDERLIKRLEERAEGIIIAGAPGMGKTTFAQALSEYYMRLGKIVKTIESPRDMHLPPEITQYSKNYAEIGELHDILLLSRPDYTVYDEMRNDEDFKLYIDLRLAGIGMVGVVHATSPIDAIHRFVNRVDIGTIPNILDTIIFINSGNVSKVYTLEITVKVPAGLKEADLARPVVEIKDLVTGNTEYEIYVFGEQTMIVPVNRGITLNNMEFKISKIVNNIIPKATVKYEDGEYVIVIPKEEIGKYNRKLVQRLKRLEKKNNIKIKIKLSD
MGSDKIHHHHHHMGNKTSQKVLLELLKDRDRWVSGNEIADSLGVTRETIWKNINLLKKRGHQIQSQKNLGYKYESSSKLDEVVINFYKNKSVDHVAVEEQVDSTQMYAKNYLATHQVEKAFAVISEQQTQGYGRRGRSFYSPKEQGLYFSIVIPKPTFEINQVGLITTGVAYVIAQTFKDFFPEREFKLKWVNDILMNRRKVAGIITEAITEVESASTQAFVIGVGINLTTPEFPEELQQKAGAIVAKNEPNIDRNLIAAQLINTIVDNWQNYLDGSFLSEYRRMSIVIGKPVTLQVGTKQVKGIATDINEYGNIVVKLDDGQVKAFNNGEITKVNLDW
MGSDKIHHHHHHMHFTPALKPGKLLKRYKRFLADVQLEDGSEITVHCPNTGSMRNCLFPGETLWFSTSSNTKRKYAHTWELMTTPTGALIGIHSGNANALVEEALNKGIITELTGYDSLRREVKYGDENSRIDILLECAQKTACYIEVKSCTLQENGQGYFPDAVSLRGQKHLRELMHMASLGHRAVLLFVVQHTDIMSVAPAAHIDPEYANLLKKSVLSGVEVLAYRCEISPSEIHLAQSCPVRV
MGSDKIHHHHHHMHIAIMSRNKNLYSTSRLKEAAEARGHVIKIVDPLKCYMNINMNAPSIHVRGEELPKFDAVIPRIGASVTFYGTAVLRQFEMMGTHPLNESVAITRSRDKLRSLQLLSRKNIGLPVTGFASKPADIPDLLDMVGGAPCVIKLLEGTQGIGVVLAETRKAAESVIEAFMGLKANIMVQEYIAEAGGADIRCFVIGDKVIAAMKRQALPGEFRSNLHRGGSASIVKLTPEERSTALRAAKTMGLNVAGVDILRSKHGPLVMEVNSSPGLEGIEKATGIDVAEKIIQFIEKNVKSTSSKTKGVG
MGSDKIHHHHHHMHLLFVTSIVPDGALASGYEIANAAIIAALRRAGARVTVIGFTWPGKVTADPENTVVLGEIDVRTESASALRKLAWVRKAMLSGLTFASVKLRAVSEHEVEAALEQAGPFDGYVLNSVQFAGAFEKLFEDKPSIFVAHNVEHLSARENEAAAGGVFQRLLFRREARLLKVVEERLCRRARFVFTLAEEDRAALGVASNDRSAVLPLVTGARAPVRNGPRRIDCDAALIGTWTWQPNRIGLDWFLGKVVPHLRPGFRIRIAGHMPSGVTSAHPGVEFVGRVADARAFVCGAAVIPLISTAGSGVQLKTIETFELGLPSVATSRSLRGIGHRPDNCVVTDDPAGFARALEAAAADIRDVDGGAFYRQQVKALDAAIRYGLSKLGAVRQEVLA
MGSDKIHHHHHHMHYDHVLDKRMLRRSFEQAAAGYDQSAVLQREICDRMLSRLEYIKYVPARILDAGSGTGYGTRKLIERYPAAEIMPMDIALTMHRCARMAISEQIPGWQRWLPFRRHWPRDYICADIEQLPLGEASIGMIWSNLAIQWCNDLRQTFAEAYRVLENGGLLMFSTFGPDTLKELRQAFKSADSFSHVNRFTDMHDIGDMLVNCGFSLPVMDMEYITLTYEDVRGVMQDLKAIGARNVTQGRRRGLTGKAAWQQVIERYEALRQDGRLPATYEVVYGHAWKPESRQVQLKPETRRKLGLEP
MGSDKIHHHHHHMHYRQYGRTGRLISRFSLGLMRCLDSAAQLEAVLDAAWRLGINHFETAQSYGPSEAYLAQALHSLQLPRDQVIITTKILPDRDPQQMVEAVLRSRDRLGIDSIDCLALHGLNQPEHLQQAIAALPALQTLQAEGVFQHLGFSSHGDRELILEAIATDAFDFVSLHYYLLFQRHAPVIEAAAAKNLGIFIISPVDKGGLLHQPSAQLIEDCQPFSPLALNYRFLLSDRRITTLSFGAAKAEELAVLQDFVDADQPLSLEEAEAIARLEQVRQQRLGRDYCQQCYACLPCPEAINIPEVLRLRNLAIAHDMQAYGRYRYRMFENAGHWFPGQRGSRCTDCGDCLPRCPHHLPIADLVRDADQRLAGAPRRRLWGD
MGSDKIHHHHHHMIAHPCYVDKFSQQVHFHAIDFARSRWNIFLLWQLKNLIQQIQPAIVHAQAGKAAELIARIKPFLSGPKFITTVHGTKKNKSAYLAGDAVIAVSQALTQGIPESKAHVVYNGVYPQPVLTTENKEKLLQSIQKDFTELDTSKRVVMCIGRLEPVKNISLLIESMQQIDANLWIVGDGSLRASLEKQVSELNMQNRVAFLGFRTDARDLVQLADIVVLSSDREGFPLVMVEALQADKAMASTKVNGVIEWLPEQYLAEIGDTQGLAKAIEYALQPEAQNDFGPLYAKAKAELTVPAMAEQTLNIYKGLLKT
MGSDKIHHHHHHMIDHLIATDIGGRGSEKLYILYKSKDPDYFSKSLDLLIKSDEVLIVSDFPIPPTMTPETDGPPGALALALGLAELGKKATILTQEIVKEGLRDFYPRITTKFPNIRKFSCLVSIETPGRNFKGEYLSFSGLKISVRPYDDLFLRALELGIPTIGIGDGGNEIGMGNLGLNDERFSVVRVNELIIAGVSNWGAYGLVAGLSMRVGQNLLRDYNEEDVVKSLVDVGLIDGITKKREPTVDGLPLSLHGKILELLIEIVNIKTP
